Values quoted from earlier work, collected in US20100069292A1, “INSULIN WITH A BASAL RELEASE PROFILE” (Biodel, Inc., priority 2008, published 2010).

Legend:
[1] = patients, compared with NPH insulin
[2] = in vivo

Question: Which “risk of low blood glucose (hypoglycemia)” value [1] does the source give for insulin glargine here?
Answer: The value was “much lower risk of low blood glucose (hypoglycemia) than the patients who took NPH insulin”.

Question: And the “duration of blood glucose lowering after injection” value [2]?
Answer: The value was “up to 24 hours”.
